One block for each binder: values may come before it.
Tests used:
mouse MuSK [1] = target: T1, mouse MuSK (mouse, UniProt Q61006 22-494, limits assumed); test: ELISA, plate coated with mouse MuSK at 0.2 µg/ml, dilution series of mAb, goat anti human Fc-HRP and TMB, OD 620 nm (8 min)
T1 construct: Coated on ELISA plates or on the Biacore chip; also called full length mouse MuSK; mouse MuSK (in house produced in HEK293 cells)
T1 sequence (looked up): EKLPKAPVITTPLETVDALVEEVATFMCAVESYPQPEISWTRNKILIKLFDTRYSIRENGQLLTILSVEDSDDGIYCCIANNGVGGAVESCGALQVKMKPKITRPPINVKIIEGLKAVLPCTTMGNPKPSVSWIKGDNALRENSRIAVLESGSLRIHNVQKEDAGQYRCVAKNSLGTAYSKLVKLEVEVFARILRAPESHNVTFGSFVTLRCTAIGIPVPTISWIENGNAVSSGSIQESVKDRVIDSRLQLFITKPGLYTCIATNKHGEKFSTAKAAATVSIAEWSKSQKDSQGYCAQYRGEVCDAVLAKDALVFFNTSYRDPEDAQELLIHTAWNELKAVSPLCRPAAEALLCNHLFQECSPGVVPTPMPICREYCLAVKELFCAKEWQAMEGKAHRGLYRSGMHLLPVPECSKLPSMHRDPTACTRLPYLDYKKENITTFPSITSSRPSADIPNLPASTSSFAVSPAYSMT
Description: (§1) An ELISA plate was coated with human MuSK (R&D Systems, cat. 10189-MK) or mouse MuSK (in house produced in HEK293 cells) at 0.2 μg/ml. After washing and blocking the plate, a dilution series of the anti-MuSK antibodies was applied and allowed to bind for 2 hours at room temperature. […] OD at 620 nm was measured with a 96 well ELISA plate reader.

human MuSK [2] = target: T2, human MuSK (human, UniProt O15146 24-495); test: ELISA, plate coated with human MuSK at 0.2 µg/ml, dilution series of mAb, goat anti human Fc-HRP and TMB, OD 620 nm (8 min)
T2 construct: Recombinant protein coated on ELISA plates (R&D Systems cat. 10189-MK) or on the Biacore chip; also called human muscle-specific tyrosine protein kinase; full length human MuSK
T2 sequence: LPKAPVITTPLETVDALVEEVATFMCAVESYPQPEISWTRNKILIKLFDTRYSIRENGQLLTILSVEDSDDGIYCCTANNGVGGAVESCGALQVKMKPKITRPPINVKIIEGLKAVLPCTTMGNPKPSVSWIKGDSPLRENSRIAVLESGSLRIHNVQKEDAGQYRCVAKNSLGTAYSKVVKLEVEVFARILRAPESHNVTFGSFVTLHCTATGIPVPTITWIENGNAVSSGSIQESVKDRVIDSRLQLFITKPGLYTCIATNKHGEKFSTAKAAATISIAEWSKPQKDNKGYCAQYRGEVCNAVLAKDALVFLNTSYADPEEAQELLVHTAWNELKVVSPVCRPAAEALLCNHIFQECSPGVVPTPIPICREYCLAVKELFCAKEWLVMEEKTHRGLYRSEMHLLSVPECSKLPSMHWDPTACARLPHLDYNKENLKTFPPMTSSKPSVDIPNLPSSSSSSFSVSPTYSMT
Description: as §1

[3] = target: T3, mouse MuSK, endogenous (C2C12 myotubes; neuromuscular synapses of mice) (mouse, UniProt Q61006 22-868); test: cell-based or functional assay
T3 sequence (looked up): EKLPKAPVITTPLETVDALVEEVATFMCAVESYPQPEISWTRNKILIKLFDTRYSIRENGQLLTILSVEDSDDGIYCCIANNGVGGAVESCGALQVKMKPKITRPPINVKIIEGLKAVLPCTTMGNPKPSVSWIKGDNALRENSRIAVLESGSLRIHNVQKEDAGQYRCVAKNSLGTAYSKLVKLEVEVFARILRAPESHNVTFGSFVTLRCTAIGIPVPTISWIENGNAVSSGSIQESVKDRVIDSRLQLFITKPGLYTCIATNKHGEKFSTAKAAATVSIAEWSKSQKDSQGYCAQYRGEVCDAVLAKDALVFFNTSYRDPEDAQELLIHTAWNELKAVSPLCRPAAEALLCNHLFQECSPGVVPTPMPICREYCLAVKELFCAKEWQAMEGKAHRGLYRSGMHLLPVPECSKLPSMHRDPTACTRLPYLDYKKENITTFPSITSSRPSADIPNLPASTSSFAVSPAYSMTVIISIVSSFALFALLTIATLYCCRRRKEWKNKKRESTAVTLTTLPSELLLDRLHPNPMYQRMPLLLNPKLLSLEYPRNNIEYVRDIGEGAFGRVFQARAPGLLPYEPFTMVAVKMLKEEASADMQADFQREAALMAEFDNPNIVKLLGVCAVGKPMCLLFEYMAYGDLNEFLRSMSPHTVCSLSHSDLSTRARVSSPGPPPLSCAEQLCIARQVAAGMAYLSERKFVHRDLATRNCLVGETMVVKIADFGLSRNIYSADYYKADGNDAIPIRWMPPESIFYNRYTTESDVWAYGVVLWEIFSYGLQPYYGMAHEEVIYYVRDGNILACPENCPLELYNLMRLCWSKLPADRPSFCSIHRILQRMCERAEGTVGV

mouse MuSK [4] = target: T1, mouse MuSK; test: Biacore, mAb
Text: (§2) For affinity determination, a CMS chip was coated with either human or mouse MuSK (200RU) and a dilution series of the antibodies (mAbs and Fabs) was applied in order to be able to calculate the affinity.

human MuSK [5] = target: T2, human MuSK; test: Biacore, MuSK on chip (200RU), mAb dilution series
Text: as §2

mouse MuSK [6] = target: T1, mouse MuSK; test: Biacore, MuSK on chip (200RU), mAb dilution series
Text: as §2

human MuSK [7] = target: T2, human MuSK; test: Biacore, MuSK on chip (200RU), Fab dilution series
Text: as §2

mouse MuSK [8] = target: T1, mouse MuSK; test: Biacore, MuSK on chip (200RU), Fab dilution series
Text: as §2

mouse MuSK [9] = target: T1, mouse MuSK; test: Biacore, Fab
Text: as §2

B1: 16F11 (antibody, V domains shown)
VH: EVQLVESGGGLVQPGGSLSLSCVASGFTFSLYYMNWVRQAPGKGLEWLSVIDTHSIAYYADSVKGRFTISRDNVKNTLYLQLNNLKPEDTALYYCVLGRTALVRWGQGTQVTVSS
VL: DIVMTQSPSSVTASVGEKVTINCKSSQSVVFGSNQKSYLNWYQQRPGQSPRLLIYYASTQESGIPDRFSGSGSTTDFTLTISSVQPEDAAVYYCQQAYSAPTFGSGTRLEIK
notes: human IgG1 with the LALA mutations (L234A, L235A); produced in HEK293 cells
- EC50 (read off the curve) (mouse MuSK [1]): ~0.02 µg/mL
- EC50 (read off the curve) (human MuSK [2]): ~0.02 µg/mL

B3: 30A11 (antibody, V domains shown)
VH: QVQVQESGPGLVKPSQTLSLTCTVSGGSITARYYSWSWIRQPPGKGLEWMGVIAYDGSTYYSPSLKSRTSISRDTSKNQFSLHLSSVTPDDTAVYYCARGSSRVAAAFDSWGQGTQVTVSS
VL: SYELTQSPSVTVALRQTAKITCGGDNIASKNVQWYQQKPGQAPSLVIWADSRRPSGIPVRFSGSNFGNTATLTISGAQAEDEADYYCQVWDSSTNVAVFGGGTHLTVL
notes: human IgG1 with the LALA mutations (L234A, L235A); produced in HEK293 cells; also called 30A11 mAb
- % Phosphorylation Induced in C2C12 Mouse Assay, Assay 1 [3]: 73 % versus agrin
- % Phosphorylation Induced in C2C12 Mouse Assay, Assay 2 [3]: 89 % versus agrin
- % Phosphorylation Induced in C2C12 Mouse Assay, Assay 3 [3]: 74 % versus agrin
- % Phosphorylation Induced in C2C12 Mouse Assay, Average [3]: 79 % versus agrin
- fold difference in affinity, human versus mouse MuSK (mouse MuSK [4]): 100 fold
- Kd (human MuSK [5]): 1 pM
- Kd (mouse MuSK [6]): 110 pM

B5: 30A11 Fab (Fab, V domains shown)
VH: B3 VH
VL: B3 VL
notes: Fab format
- Kd (human MuSK [7]): 8 pM
- Kd (mouse MuSK [8]): 2420 pM
- fold difference in affinity, human versus mouse MuSK (mouse MuSK [9]): ≥ 1000 fold

Continued, values first:

- % Phosphorylation Induced in C2C12 Mouse Assay, Assay 1 [3]: 66 % versus agrin
- % Phosphorylation Induced in C2C12 Mouse Assay, Assay 2 [3]: 82 % versus agrin
- % Phosphorylation Induced in C2C12 Mouse Assay, Assay 3 [3]: 50 % versus agrin
- % Phosphorylation Induced in C2C12 Mouse Assay, Average [3]: 66 % versus agrin
- fold difference in affinity, human versus mouse MuSK (mouse MuSK [4]): 10 fold
- Kd (human MuSK [5]): 11 pM
- Kd (mouse MuSK [6]): 153 pM
B2: 30E1 (antibody, V domains shown)
VH: B3 VH
VL: SYELTQSPSVSVALRRTAKITCGGDNIGSKNTQWYQQKPGQAPVLVIYADSRRPSGIPERFSGSNSGNTATLTISGAQAEDEADYYCHVWDSSTNAWFGGGTHLTVL
notes: human IgG1 with the LALA mutations (L234A, L235A); produced in HEK293 cells; also called 30E1 mAb

- Kd (human MuSK [7]): 70 pM
- Kd (mouse MuSK [8]): 5390 pM
- fold difference in affinity, human versus mouse MuSK (mouse MuSK [9]): ≥ 1000 fold
B4: 30E1 Fab (Fab, V domains shown)
VH: B3 VH
VL: B2 VL
notes: Fab format
